Data reported in patent US20200188539A1 (CURATORS OF THE UNIVERSITY OF MISSOURI, published 2020).
Square brackets hold non-standard residues; d marks the D form. * marks the point of attachment. DUPA = PSMA-binding small-molecule urea, O=C(O)CC[C@H](NC(=O)N[C@@H](CCC(=O)*)C(=O)O)C(=O)O; DOTA = O=C(O)CN1CCN(CC(=O)O)CCN(CC(=O)*)CCN(CC(=O)O)CC1; Sta = CC(C)C[C@H](N)[C@@H](O)CC(=O)O; 4Abz = Nc1ccc(C(=O)O)cc1; Ahx = NCCCCCC(=O)O; Ava = NCCCCC(=O)O

B1: [DUPA-6-Ahx-[DOTA]-5-Ava-RM2] (peptide)
peptide: {DUPA-Ahx}-K(DOTA)[Ava][dF]QWAVGH[Sta]L-NH2
notes: Unmetallated bivalent conjugate; also called [DUPA-6-Ahx-Lys[DOTA]-X-RM2], X=5-Ava; [DUPA-6-Ahx-Lys(DOTA)-X-RM2] formula (I), X=5-aminovaleric acid
B2: [DUPA-6-Ahx-[^natIn-DOTA]-5-Ava- RM2] (peptide)
peptide: {DUPA-Ahx}-K(DOTA)[Ava][dF]QWAVGH[Sta]L-NH2
modifications: also: DOTA complexed with natural indium
B3: [DUPA-6-Ahx-[^natIn-DOTA-AMBA-RM2] (peptide)
peptide: {DUPA-Ahx}-K(DOTA)[4Abz][dF]QWAVGH[Sta]L-NH2
modifications: also: DOTA complexed with natural indium
B4: [DUPA-6-Ahx-Lys(DOTA)-6-Ahx-RM2] (peptide)
peptide: {DUPA-Ahx}-K(DOTA)[Ahx][dF]QWAVGH[Sta]L-NH2
SMILES: CC(C)C[C@H](NC(=O)C[C@H](O)[C@H](CC(C)C)NC(=O)[C@H](Cc1c[nH]cn1)NC(=O)CNC(=O)[C@@H](NC(=O)[C@H](C)NC(=O)[C@H](Cc1c[nH]c2ccccc12)NC(=O)[C@H](CCC(N)=O)NC(=O)[C@@H](Cc1ccccc1)NC(=O)CCCCCNC(=O)[C@H](CCCCNC(=O)CN1CCN(CC(=O)O)CCN(CC(=O)O)CCN(CC(=O)O)CC1)NC(=O)CCCCCNC(=O)CC[C@H](NC(=O)N[C@@H](CCC(=O)O)C(=O)O)C(=O)O)C(C)C)C(N)=O
notes: Unmetallated bivalent conjugate; also called [DUPA-6-Ahx-[DOTA]-6-Ahx-RM2]; [DUPA-6-Ahx-Lys[DOTA]-X-RM2], X=6-Ahx
B5: [DUPA-6-Ahx-[DOTA]-AMBA-RM2] (peptide)
peptide: {DUPA-Ahx}-K(DOTA)[4Abz][dF]QWAVGH[Sta]L-NH2
notes: Unmetallated bivalent conjugate; also called [DUPA-6-Ahx-Lys[DOTA]-X-RM2], X=AMBA

Experiments:
[1] = target: prostate specific membrane antigen (human (human prostate LNCaP cells), UniProt Q04609 1-750); test: cell-based or functional assay
[2] = target: T1, gastrin-releasing peptide receptor (human (human prostate PC-3 cells), UniProt P30550 1-384); test: competitive displacement of 125I-(Tyr4)-BBN on GRPR-positive PC-3 cells
T1 construct: whole, on cells; Endogenous receptor on PC-3 cells; also called GRPR; GRPr
Method: (§1) (NAAG) as the radioligands. For the GRPR-positive assay, 3×10⁴ PC-3 cells (in D-MEM/F-12 K media containing 0.01 M MEM and 2% BSA, pH=5.5) were incubated with 20,000 counts per minute of [¹²⁵I-(Tyr4)-BBN] and increasing concentrations (1×10⁻¹³-1×10⁻⁵ M) of the metallated targeting vector (1 h, 37° C., 5% CO₂-enriched atmosphere). After incubation, the reaction medium was aspirated and the cells were rinsed three times with cold media. Cell-associated radioactivity was determined using a Packard Riastar gamma counter. The percent of bound radioligand was plotted against the increasing concentrations of the metallated conjugate to determine the IC₅₀ value. IC₅₀ values were determined by curve fitting using Prism Software (version 6.0). For the PSMA-positive assay, the binding affinity was measured using the N-acetylated-α-linked acidic dipeptidase (NAALADase) assay. […] (increasing concentrations 1×10⁻¹³-1×10⁻⁵ M) in 50 μL of Tris-HCl buffer (50 mM, pH=7.4) were incubated with LNCaP tissue culture homogenized cell membranes for a period of 45 min. Then, [N-acetyl aspartyl ³H-glutamate] was added to the reaction mixture and the solution was allowed to incubate for an additional 15 min at 37° C. The enzymatic reaction was stopped by addition of 50 μL of cold sodium phosphate buffer (0.1 M, pH=7.4). [N-acetyl aspartyl ³H-glutamate] and [³H-glutamate] were resolved by cation exchange chromatography using AG 50 W-X8 columns (200-400 mesh). Columns were pre-equilibrated with 0.2 M HCl prior to loading of the reaction mixture. Fractions containing [³H-glutamate] were eluted using 6 mL of 2 M HCl. Scintillation cocktail was added to each fraction and the amount of radioactivity in each was determined by liquid scintillation counting. The percent of bound radioligand was plotted against the increasing concentrations of the conjugate to determine the IC₅₀ value. IC₅₀ values were determined by curve fitting using Prism Software (version 6.0).

[3] = target: T1, gastrin-releasing peptide receptor; test: competitive displacement of 125I-[Tyr4]BBN on human prostate PC-3 cells (FIG. 2)
Method: as §1, with “6.0).” for “6.0). For the PSMA-positive assay, the binding affinity was measured using the N-acetylated-α-linked acidic dipeptidase (NAALADase) assay.”, “[N-acetyl aspartyl ³H-glutamate] and [³H-glutamate] were resolved by cation exchange chromatography using AG 50 W-X8 columns (200-400 mesh). Columns were pre-equilibrated with 0.2 M HCl prior to loading of the reaction mixture. Fractions containing [³H-glutamate] were eluted using 6 mL of 2 M HCl.” left out, “The percent of bound radioligand was plotted against the increasing concentrations of the conjugate to determine the IC₅₀ value.” left out

T1 sequence (P30550 whole entry): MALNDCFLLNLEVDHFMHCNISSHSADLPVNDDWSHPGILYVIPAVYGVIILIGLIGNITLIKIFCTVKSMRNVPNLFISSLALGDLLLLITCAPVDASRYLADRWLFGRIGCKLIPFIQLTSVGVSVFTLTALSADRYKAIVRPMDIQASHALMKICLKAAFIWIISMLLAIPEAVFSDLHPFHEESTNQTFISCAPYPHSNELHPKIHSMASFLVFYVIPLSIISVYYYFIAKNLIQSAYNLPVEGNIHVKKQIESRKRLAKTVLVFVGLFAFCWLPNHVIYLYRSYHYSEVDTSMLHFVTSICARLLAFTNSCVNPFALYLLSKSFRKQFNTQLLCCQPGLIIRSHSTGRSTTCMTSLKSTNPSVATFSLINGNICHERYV
Chain of prostate specific membrane antigen (Q04609 whole entry): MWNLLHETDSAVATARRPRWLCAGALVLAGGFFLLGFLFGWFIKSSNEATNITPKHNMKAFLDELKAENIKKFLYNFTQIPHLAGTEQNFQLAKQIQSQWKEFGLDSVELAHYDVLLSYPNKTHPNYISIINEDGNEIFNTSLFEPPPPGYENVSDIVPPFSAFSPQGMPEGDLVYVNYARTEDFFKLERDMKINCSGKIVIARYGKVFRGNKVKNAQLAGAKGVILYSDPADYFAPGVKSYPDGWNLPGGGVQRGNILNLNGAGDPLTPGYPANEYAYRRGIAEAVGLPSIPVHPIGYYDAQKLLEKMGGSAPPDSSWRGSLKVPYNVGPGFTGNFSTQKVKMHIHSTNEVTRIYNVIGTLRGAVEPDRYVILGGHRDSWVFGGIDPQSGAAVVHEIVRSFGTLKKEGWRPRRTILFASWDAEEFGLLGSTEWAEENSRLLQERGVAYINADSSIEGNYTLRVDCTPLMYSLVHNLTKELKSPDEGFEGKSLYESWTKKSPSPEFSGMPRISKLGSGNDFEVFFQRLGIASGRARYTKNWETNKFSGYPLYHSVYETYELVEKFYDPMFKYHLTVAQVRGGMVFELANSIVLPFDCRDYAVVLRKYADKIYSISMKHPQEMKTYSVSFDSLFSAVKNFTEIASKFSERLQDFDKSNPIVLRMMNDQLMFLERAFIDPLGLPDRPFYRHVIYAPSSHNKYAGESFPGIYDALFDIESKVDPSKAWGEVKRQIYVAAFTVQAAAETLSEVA

Binder | IC50 LNCaP cells (NAALADase assay, [N-acetyl aspartyl 3H-glutamate] substrate, LNCaP homogenized cell membranes) [1] | IC50 [2] | IC50 [3]
B1 | 11.2 nM | 5.14 nM | –
B2 | 14.4 nM | – | –
B3 | 14.9 nM | – | –
B4 | – | 3.85 nM | 3.99 nM
B5 | – | 5.27 nM | –
